Results published in IntAct's records for PubMed 7759517.

B1: Dual specificity mitogen-activated protein kinase kinase 5 (Homo sapiens), Q13163 (parent)
chain: MLWLALGPFPAMENQVLVIRIKIPNSGAVDWTVHSGPQLLFRDVLDVIGQVLPEATTTAFEYEDEDGDRITVRSDEEMKAMLSYYYSTVMEQQVNGQLIEPLQIFPRACKPPGERNIHGLKVNTRAGPSQHSSPAVSDSLPSNSLKKSSAELKKILANGQMNEQDIRYRDTLGHGNGGTVYKAYHVPSGKILAVKVILLDITLELQKQIMSELEILYKCDSSYIIGFYGAFFVENRISICTEFMDGGSLDVYRKMPEHVLGRIAVAVVKGLTYLWSLKILHRDVKPSNMLVNTRGQVKLCDFGVSTQLVNSIAKTYVGTNAYMAPERISGEQYGIHSDVWSLGISFMELALGRFPYPQIQKNQGSLMPLQLLQCIVDEDSPVLPVGEFSEPFVHFITQCMRKQPKERPAPEELMGHPFIVQFNDGNAAVVSMWVCRALEERRSQQGPP

Variants of: B1
Settings: with mk07_human MAPK7, Q13164
mk07_human MAPK7, Q13164, sequence (Q13164 whole entry, looked up): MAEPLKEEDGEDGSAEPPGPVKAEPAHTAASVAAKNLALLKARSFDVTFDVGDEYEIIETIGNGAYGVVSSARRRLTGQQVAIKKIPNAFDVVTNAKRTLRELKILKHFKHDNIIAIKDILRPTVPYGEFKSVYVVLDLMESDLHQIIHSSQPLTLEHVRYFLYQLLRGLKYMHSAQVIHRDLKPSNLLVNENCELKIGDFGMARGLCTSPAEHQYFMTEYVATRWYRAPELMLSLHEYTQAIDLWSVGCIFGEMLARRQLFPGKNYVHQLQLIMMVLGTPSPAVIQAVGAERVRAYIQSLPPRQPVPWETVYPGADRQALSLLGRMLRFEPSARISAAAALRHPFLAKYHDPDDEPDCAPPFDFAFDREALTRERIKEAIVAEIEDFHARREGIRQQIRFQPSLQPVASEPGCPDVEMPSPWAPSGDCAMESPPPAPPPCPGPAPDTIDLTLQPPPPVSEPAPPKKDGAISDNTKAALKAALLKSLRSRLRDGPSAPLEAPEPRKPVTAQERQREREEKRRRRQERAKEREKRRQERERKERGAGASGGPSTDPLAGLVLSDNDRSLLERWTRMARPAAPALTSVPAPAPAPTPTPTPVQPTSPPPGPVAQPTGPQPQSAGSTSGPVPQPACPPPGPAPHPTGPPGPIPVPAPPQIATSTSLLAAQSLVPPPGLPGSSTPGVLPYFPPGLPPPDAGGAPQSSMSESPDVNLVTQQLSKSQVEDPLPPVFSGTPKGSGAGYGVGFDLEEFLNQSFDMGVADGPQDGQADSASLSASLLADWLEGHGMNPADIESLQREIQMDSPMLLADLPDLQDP
For K195M, the “effect of a mutation on the interaction” value was “increasing interaction”.

Variants of: B1
Settings: with mk07_human MAPK7, Q13164
Remark: another data set of the same source
For S311A;T315A, the “effect of a mutation on the interaction” value was “increasing interaction”.
